{
  "source": "patent US20040014194",
  "proteins": {"B1": {"name": "ProBACE (SEQ ID NO: 2), Sf9-derived soluble pro-β-secretase (protein)", "chain": "TQHGIRLPLRSGLGGAPLGLRLPRETDEEPEEPGRRGSFVEMVDNLRGKSGQGYYVEMTVGSPPQTLNILVDTGSSNFAVGAAPHPFLHRYYQRQLSSTYRDLRKGVYVPYTQGKWEGELGTDLVSIPHGPNVTVRANIAAITESDKFFINGSNWEGILGLAYAEIARPDDSLEPFFDSLVKQTHVPNLFSLQLCGAGFPLNQSEVLASVGGSMIIGGIDHSLYTGSLWYTPIRREWYYEVIIVRVEINGQDLKMDCKEYNYDKSIVDSGTTNLRLPKKVFEAAVKSIKAASSTEKFPDGFWLGEQLVCWQAGTTPWNIFPVISLYLMGEVTNQSFRITILPQQYLRPVEDVATSQDDCYKFAISQSSTGTVMGAVIMEGFYVVFDRARKRIGFAVSACHVHDEFRTAAVEGPFVTLDMEDCGYNIPQTDESTLE"}, "B2": {"name": "mature BACE (SEQ ID NO: 1), Sf9-derived glycosylated human β-secretase (protein)", "chain": "ETDEEPEEPGRRGSFVEMVDNLRGKSGQGYYVEMTVGSPPQTLNILVDTGSSNFAVGAAPHPFLHRYYQRQLSSTYRDLRKGVYVPYTQGKWEGELGTDLVSIPHGPNVTVRANIAAITESDKFFINGSNWEGILGLAYAEIARPDDSLEPFFDSLVKQTHVPNLFSLQLCGAGFPLNQSEVLASVGGSMIIGGIDHSLYTGSLWYTPIRREWYYEVIIVRVEINGQDLKMDCKEYNYDKSIVDSGTTNLRLPKKVFEAAVKSIKAASSTEKFPDGFWLGEQLVCWQAGTTPWNIFPVISLYLMGEVTNQSFRITILPQQYLRPVEDVATSQDDCYKFAISQSSTGTVMGAVIMEGFYVVFDRARKRIGFAVSACHVHDEFRTAAVEGPFVTLDMEDCGYNIPQTDESTLE"}},
  "target": "T1, Biotin-KSEVNL*DAEFRK-Fluorescein (SEQ ID NO: 3), peptide substrate derived from the sequence of \"Swedish\" amyloid protein peptide",
  "T1 chain": "KSEVNLDAEFRK",
  "data": [
    {"protein": "B1", "values": [
      {"measurement": "specificity constant (kcat/Km)", "value": "1500 ± 100", "unit": "M⁻¹ s⁻¹"}
    ]},
    {"protein": "B2", "values": [
      {"measurement": "specificity constant (kcat/Km)", "value": "1500 ± 100", "unit": "M⁻¹ s⁻¹"}
    ]}
  ]
}
